{"source": "paper PMC6188894", "data": [{"target": "VN-TFIIEβ (TFIIEβ fused to the N-terminal fragment of Venus, pCS2VNm9)", "experiment": "BiFC", "conditions": "cell culture; pCAG-Cherry co-transfected as a control", "units": {"response": "%"}, "values": [{"substance": "VC-Antp (wild-type Antennapedia fused to the C-terminal fragment of Venus, pCS2VC155) (from UniProt P02833) H36R", "response": 32}, {"substance": "VC-Antp (wild-type Antennapedia fused to the C-terminal fragment of Venus, pCS2VC155) (from UniProt P02833) I32A", "response": 29}, {"substance": "VC-Antp (wild-type Antennapedia fused to the C-terminal fragment of Venus, pCS2VC155) (from UniProt P02833) I32L", "response": 31}]}, {"target": "EXD (BiFC partner in HEK293 cells) (Drosophila) (UniProt P40427)", "sequence (P40427 whole entry, the tested form may be a part)": "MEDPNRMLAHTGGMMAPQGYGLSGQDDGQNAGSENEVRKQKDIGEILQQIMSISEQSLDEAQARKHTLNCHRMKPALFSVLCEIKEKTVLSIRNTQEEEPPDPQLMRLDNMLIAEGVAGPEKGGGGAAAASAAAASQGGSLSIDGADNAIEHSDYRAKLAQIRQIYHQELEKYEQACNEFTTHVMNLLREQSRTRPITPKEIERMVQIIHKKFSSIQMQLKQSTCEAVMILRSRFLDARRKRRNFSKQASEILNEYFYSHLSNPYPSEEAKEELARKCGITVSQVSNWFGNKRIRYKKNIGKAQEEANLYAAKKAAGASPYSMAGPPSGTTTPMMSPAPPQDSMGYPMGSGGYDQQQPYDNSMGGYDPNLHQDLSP", "experiment": "split reporter (BiFC, NanoBiT); BiFC with split Venus (VC and VN fusions) in co-transfected HEK293 cells, read 48 h after transfection by confocal microscopy; percent = Venus-fluorescent cells in one hundred mCherry-positive cells, three independent experiments", "conditions": "not given", "units": {"percent of transfected (mCherry-positive) cells with BiFC signal": "%"}, "values": [{"substance": "VC-Antp^I32A-H36A (in HEK293 cells) (natural protein)", "percent of transfected (mCherry-positive) cells with BiFC signal": 79}]}, {"target": "VN-TFIIEβ (TFIIEβ fused to the N-terminal fragment of Venus, pCS2VNm9) (Drosophila)", "sequence (O96881 entry or part of it)": "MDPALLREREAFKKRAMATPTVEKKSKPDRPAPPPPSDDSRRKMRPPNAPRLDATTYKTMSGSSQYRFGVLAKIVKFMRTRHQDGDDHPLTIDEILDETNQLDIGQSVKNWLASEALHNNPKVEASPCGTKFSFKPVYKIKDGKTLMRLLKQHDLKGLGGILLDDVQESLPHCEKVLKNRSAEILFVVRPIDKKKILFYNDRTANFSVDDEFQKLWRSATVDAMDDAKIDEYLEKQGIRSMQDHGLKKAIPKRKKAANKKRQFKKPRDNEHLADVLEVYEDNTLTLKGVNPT", "experiment": "split reporter (BiFC, NanoBiT); BiFC with split Venus (VC and VN fusions) in co-transfected HEK293 cells, read 48 h after transfection by confocal microscopy; percent = Venus-fluorescent cells in one hundred mCherry-positive cells, three independent experiments", "conditions": "not given", "units": {"percent of transfected (mCherry-positive) cells with BiFC signal": "%"}, "values": [{"substance": "VC-Antp (wild-type Antennapedia fused to the C-terminal fragment of Venus, pCS2VC155) (from UniProt P02833 1-378) (natural protein)", "percent of transfected (mCherry-positive) cells with BiFC signal": 78}, {"substance": "VC-AntpHD (Antp homeodomain construct fused to the C-terminal fragment of Venus, pCS2VC155) (domain or fragment)", "percent of transfected (mCherry-positive) cells with BiFC signal": 75}, {"substance": "VC-Antp^AAAA (Antp with the YPWM motif replaced with alanines) (from UniProt P02833 1-378) (natural protein)", "percent of transfected (mCherry-positive) cells with BiFC signal": 76}, {"substance": "VC-Antp^I32L-H36R (natural protein)", "percent of transfected (mCherry-positive) cells with BiFC signal": 13}, {"substance": "VC-AntpΔH1 (Antp with helix 1 of the HD deleted) (from UniProt P02833 1-378) (natural protein)", "percent of transfected (mCherry-positive) cells with BiFC signal": 74}, {"substance": "VC-AntpΔH1-2 (Antp with helices 1 and 2 of the HD deleted) (from UniProt P02833 1-378) (natural protein)", "percent of transfected (mCherry-positive) cells with BiFC signal": 15}, {"substance": "VC-AntpΔHD (Antp with the homeodomain deleted) (from UniProt P02833 1-378) (natural protein)", "percent of transfected (mCherry-positive) cells with BiFC signal": 26}]}]}
